Assay results as given in patent publication EP4785962A1, “ANTIBODY-DRUG CONJUGATE TARGETING TROP2, AND PREPARATION METHOD AND USE THEREFOR” (priority 2023, dated 2025).

What was measured:
[1] = system: human hypopharyngeal carcinoma squamous cell line FaDu; assay: In vitro cytotoxicity test, FaDu cells, 6 days; format: cell-based; conditions: 6 days of culture
Experimental: (§1) 10% FBS (SH30406.05, HYCLONE) was added to RPMI 1640 (22400-071, Gibco), and the mixture was mixed well to prepare a BxPC3 cell (ATCC) growth medium. BxPC3 or FaDu cells were adjusted to a concentration of 50000 cells/mL with a growth medium, seeded into a 96-well white-bottom plate (167008, NUNC) at 50 µL per well (2500 cells/well), and incubated overnight in an incubator at 37 °C. The antibody was diluted with growth medium and serially diluted 5-fold from 200 nM (2×) to obtain 9 gradients, with the final concentration being […]. The diluted antibody-drug conjugate or control was added at 50 µL/well, and the total volume was 100 µL. […] The cell pellet was fully lysed by shaking on a plate shaker for 5 min, and the luminescence signal was stabilized by standing at room temperature for 10 min. The culture plate was tested on a microplate reader (spectra MAX i3x, Molecular Divices), the […] were taken, and the cell viability was calculated. […]
(§2) The cell proliferation inhibition rate after 6 days of culture was calculated using the following formula.
(§3) Cell proliferation inhibition rate (%) = […], where a: the average value of experimental sample-added wells after 6 days of culture; b: the average value of control medium-added wells after 6 days of culture. The data were fitted by GraphPad Prism and the IC50 of the drug was calculated (Table 4).

[2] = system: pancreatic cancer cell line BxPC3; assay: Mouse xenograft tumor model BxPC3; format: in vivo, immunodeficient mice CB17-SCID; conditions: low dose (3 mg/kg), intraperitoneal, single administration
Experimental: • 1. Mice: immunodeficient mice CB17-SCID (Vital River) aged 6-8 weeks were placed in an SPF experimental environment for 3-5 days before the experiment to better adapt to the current living environment. In all experiments, the long and short diameters of the tumor were measured twice a week using a vernier caliper, and the tumor volume (mm^3) was calculated from the measured data. The calculation formula is as follows: Tumor volume(mm^3) = 0.5 × long diameter(mm) × short diameter(mm) × short diameter(mm) [formula] • 2. Human gastric cancer cell line NCI-N87 (ATCC) cells were resuspended in 1× PBS (Gibco, 10010049) at an appropriate concentration, and the tumor cells were implanted subcutaneously in the right abdomen of the mice at an inoculation amount of 2×10^6 /mouse. When the tumor volume reached 150-200 mm^3, the mice were divided into groups such that the average initial administration volume of each group was substantially the same. After grouping, different doses of antibody-drug conjugates hRs7-DXd, hRS7-MB3 and hTINA1-DXd, or control-drug conjugates IgG-MB3, IgG-DXd and IgG control were administered by intraperitoneal injection. […] Compared with hRS7-DXd, hRS7-MB3 has a stronger tumor inhibitory effect. […] The growth status of the mice was observed, and the changes in tumor volume of the mice were measured. […]

[3] = system: human pancreatic cancer cell line BxPC-3; assay: In vitro cytotoxicity test, BxPC3 cells, 6 days; format: cell-based; conditions: BxPC3, 6 days of culture
Experimental: as §1, §2, §3

[4] = system: Human gastric cancer cell line NCI-N87; assay: Mouse xenograft tumor model NCI-N87; format: in vivo, immunodeficient mice CB17-SCID; conditions: intraperitoneal injection
Experimental: • 1. Mice: immunodeficient mice CB17-SCID (Vital River) aged 6-8 weeks were placed in an SPF experimental environment for 3-5 days before the experiment to better adapt to the current living environment. In all experiments, the long and short diameters of the tumor were measured twice a week using a vernier caliper, and the tumor volume (mm^3) was calculated from the measured data. The calculation formula is as follows: Tumor volume(mm^3) = 0.5 × long diameter(mm) × short diameter(mm) × short diameter(mm) [formula] • 2. Human gastric cancer cell line NCI-N87 (ATCC) cells were resuspended in 1× PBS (Gibco, 10010049) at an appropriate concentration, and the tumor cells were implanted subcutaneously in the right abdomen of the mice at an inoculation amount of 2×10^6 /mouse. When the tumor volume reached 150-200 mm^3, the mice were divided into groups such that the average initial administration volume of each group was substantially the same. After grouping, different doses of antibody-drug conjugates hRs7-DXd, hRS7-MB3 and hTINA1-DXd, or control-drug conjugates IgG-MB3, IgG-DXd and IgG control were administered by intraperitoneal injection. […] Compared with hRS7-DXd, hRS7-MB3 has a stronger tumor inhibitory effect. […] Non-small cell lung cancer cell line HCC827 cells purchased from ATCC were inoculated subcutaneously into mice (2×10^6 /mouse), and when the tumor volume reached 120-150 mm^3, the mice were grouped and administered. Different doses of the antibody-drug conjugate and the control drug were intraperitoneally injected into the mice, and the administration was performed only once throughout the experiment. The growth status of the mice was observed, and the changes in tumor volume of the mice were measured. […] The lung squamous cell carcinoma cell line LK-2 (CBP60105) purchased from Nanjing Cobioer Biosciences was implanted subcutaneously in the right abdomen of the mice at an inoculation amount of 3 × 10 ^6 cells/mouse. When the tumor volume reached 150-200 mm^3, the mice were divided into groups such that the average initial administration volume of each group was substantially the same. The mice were administered only once throughout the experiment and injected intraperitoneally at a dose of 10 mg/kg. IgG-MB3 or IgG-DXd was used as a negative control. It was observed that two TROP2-targeted ADCs were also able to delay tumor growth in a tumor model with relatively low TROP2 expression (FIG. 7). […] The pancreatic cancer cell line BxPC3 cells purchased from ATCC were implanted subcutaneously in the right abdomen of the mice at an inoculation amount of 3 × 10 ^6 cells/mouse. […]

B1: hTINA1-DXd: control ADC: antibody hTINA1 conjugated with Linker-DXd, average DAR 4.3; TROP2-ADC from Daiichi Sankyo (conjugate, chains of the INN, looked up)
VH: QVQLVQSGAEVKKPGASVKVSCKASGYTFTTAGMQWVRQAPGQGLEWMGWINTHSGVPKYAEDFKGRVTISADTSTSTAYLQLSSLKSEDTAVYYCARSGFGSSYWYFDVWGQGTLVTVSS
VL: DIQMTQSPSSLSASVGDRVTITCKASQDVSTAVAWYQQKPGKAPKLLIYSASYRYTGVPSRFSGSGSGTDFTLTISSLQPEDFAVYYCQQHYITPLTFGQGTKLEIK
modifications: deruxtecan (Linker-DXd), DAR 4.3
notes: control ADC: antibody hTINA1 conjugated with Linker-DXd, average DAR 4.3; TROP2-ADC from Daiichi Sankyo
B1 was tested, and the IC50 [1] was 1.5 nM, the tumor inhibitory effect [2] was “equivalent tumor inhibitory effects” and the IC50 [3] was 0.55 nM. For the same molecule, the tumor inhibitory effect ([4]; high-dose group (3 mg/kg)) was “comparable tumor inhibitory effects” and the tumor inhibitory effect ([4]; low dose (1 mg/kg), compared with IgG-MB3 and IgG-DXd) was “a certain degree of tumor inhibitory effect”.
